# Measured values from patent US20090269346A1 (RAPTOR PHARMACEUTICAL, published 2009).
# Positions count from the first letter of the chain named. In names and notes the source's numbering stands.
# T1: RAP-IDU (fusion of RAP and human α-L-iduronidase) (human, UniProt P35475 28-653, limits assumed)
# T1 construct: iduronidase served as reporter
# T1 sequence: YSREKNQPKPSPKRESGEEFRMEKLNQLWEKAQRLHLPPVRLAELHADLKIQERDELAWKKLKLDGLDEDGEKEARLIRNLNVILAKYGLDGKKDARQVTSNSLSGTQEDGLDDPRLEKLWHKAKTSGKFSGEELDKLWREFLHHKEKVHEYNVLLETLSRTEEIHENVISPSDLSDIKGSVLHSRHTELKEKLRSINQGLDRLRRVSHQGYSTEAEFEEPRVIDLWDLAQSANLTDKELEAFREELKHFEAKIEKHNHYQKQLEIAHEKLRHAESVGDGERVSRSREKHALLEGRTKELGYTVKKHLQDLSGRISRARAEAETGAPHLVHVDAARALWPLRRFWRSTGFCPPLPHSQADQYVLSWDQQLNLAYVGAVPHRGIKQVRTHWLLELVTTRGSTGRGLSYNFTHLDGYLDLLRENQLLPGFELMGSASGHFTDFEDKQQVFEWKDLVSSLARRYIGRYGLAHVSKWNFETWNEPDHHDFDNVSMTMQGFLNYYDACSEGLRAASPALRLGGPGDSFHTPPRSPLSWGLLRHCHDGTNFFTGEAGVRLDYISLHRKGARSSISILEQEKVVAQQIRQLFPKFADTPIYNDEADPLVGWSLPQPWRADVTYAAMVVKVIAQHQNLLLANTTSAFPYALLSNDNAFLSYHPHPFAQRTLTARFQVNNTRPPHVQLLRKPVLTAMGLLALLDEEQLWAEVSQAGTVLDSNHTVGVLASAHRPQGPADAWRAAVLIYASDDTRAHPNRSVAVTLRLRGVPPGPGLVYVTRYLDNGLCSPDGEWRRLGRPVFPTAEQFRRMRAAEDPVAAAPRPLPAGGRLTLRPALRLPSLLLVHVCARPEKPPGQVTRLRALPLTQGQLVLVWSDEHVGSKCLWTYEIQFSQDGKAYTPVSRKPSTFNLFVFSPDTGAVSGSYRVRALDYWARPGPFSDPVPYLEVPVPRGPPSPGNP
# B1: RAP d3 E217K (ligand)
# chain: LDRLRRVSHQGYSTEAKFEEPRVIDLWDLEQSANLTDKELEAFREELKHFEAKIEKHNHYQKQLEIAHEKLRHAESVGDGERVSRSREKHALLEGRTKELGYTVKKHLQDLSGRISRAR
# notes: forward mutant of wild-type RAP d3; also called RAP E217K; not shown: vector-encoded N-terminal tags of pET30(+)a
# B2: RAP d3 E251K, K256A, K270E (ligand)
# chain: B1 chain with K17E, E51K, K56A, K70E
# notes: forward mutant of wild-type RAP d3; also called RAP E251K, K256A, K270E; not shown: vector-encoded N-terminal tags of pET30(+)a
# B3: RAP d3 K270E (ligand)
# chain: B1 chain with K17E, K70E
# notes: forward mutant of wild-type RAP d3; also called RAP K270E; not shown: vector-encoded N-terminal tags of pET30(+)a
# B4: RAP d3 E251K, K270E (ligand)
# chain: B1 chain with K17E, E51K, K70E
# notes: forward mutant of wild-type RAP d3; also called RAP E251K, K270E; not shown: vector-encoded N-terminal tags of pET30(+)a
# B5: RAP d3 E251K (ligand)
# chain: B1 chain with K17E, E51K
# notes: forward mutant of wild-type RAP d3; also called RAP E251K; not shown: vector-encoded N-terminal tags of pET30(+)a
# B6: RAP d3 H249Y (ligand)
# chain: B1 chain with K17E, H49Y
# notes: forward mutant of wild-type RAP d3; also called RAP H249Y; not shown: vector-encoded N-terminal tags of pET30(+)a
# B7: RAP d3 K256A, K270E (ligand)
# chain: B1 chain with K17E, K56A, K70E
# notes: forward mutant of wild-type RAP d3; also called RAP K256A, K270E; not shown: vector-encoded N-terminal tags of pET30(+)a
# B8: LRP6 CR12 (receptor, human, UniProt O75581 1247-1322, looked up)
# chain: PTCSPQQFTCFTGEIDCIPVAWRCDGFTECEDHSDELNCPVCSESQFQCASGQCIDGALRCNGDANCQDKSDEKNC
# notes: range 1247-1322; also called L6 CR12; not shown: N-terminal hexahistidine and S-peptide from pET30(+)a
# B9: VLDLR CR6-8 (receptor)
# chain: not shown
# notes: range 235-358; also called V CR6-8; not shown: N-terminal hexahistidine and S-peptide from pET30(+)a
# B10: LRP6 CR1-3 (receptor, human, UniProt O75581 1247-1363, looked up)
# chain: PTCSPQQFTCFTGEIDCIPVAWRCDGFTECEDHSDELNCPVCSESQFQCASGQCIDGALRCNGDANCQDKSDEKNCEVLCLIDQFRCANGQCIGKHKKCDHNVDCSDKSDELDCYPT
# notes: range 1247-1363; also called L6 CR1-3; not shown: N-terminal hexahistidine and S-peptide from pET30(+)a
# B11: LRP2 CR89 (receptor)
# chain: not shown
# notes: domain: CR8 and CR9; also called YVWR; L2 CR89; not shown: N-terminal hexahistidine and S-peptide from pET30(+)a
# Target: T2, LRP1 CR3-5 (human)
# T2 construct: range 852-973; Amplified from human cDNA; also called L1 CR3-5
# T2 sequence (Q07954 852-973): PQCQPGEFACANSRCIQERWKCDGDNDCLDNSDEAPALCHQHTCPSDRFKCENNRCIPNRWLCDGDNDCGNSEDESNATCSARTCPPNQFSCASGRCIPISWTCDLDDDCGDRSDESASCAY
# Assay: solid-phase assay, coated CR protein, anti-RAP, OD450
# Experimental: (§1) Percent of maximum binding is the ratio of the OD at the highest concentration tested for each ligand and the highest OD measured for all such ligands at that concentration.
# (§2) Solid phase binding assays-Purified, refolded CR protein (1 μg) was bound to Nunc Maxisorp™ 96-well plates in TBS pH 8 supplemented with 5 mM CaCl₂ (TBSC) overnight at 4° C. Wells were washed with TBSC and then blocked with TBSC containing 2% bovine serum albumin (BSA). RAP ligands were then incubated with the immobilized receptor at a range of concentrations for 2 hours in the above blocking buffer supplemented with 0.05% Tween-20 at room temperature. Control wells contained no added ligand. As an additional control, to determine whether the absence of calcium affected binding, 10 mM EGTA was included in the incubation medium for some samples. Wells were washed with TBSTC and bound ligands detected with polyclonal anti-RAP (BP41/42, 1:1,000, BioMarin). Excess primary antibody was removed and wells washed before incubation with the secondary antibody, HRP-conjugated goat anti rabbit IgG (Bio-Rad). After washing, TMB substrate solutions (Bio-Rad) were added to detect HRP. Color development was stopped with 1N HCl. Absorption at 450 nm was measured with a microplate spectrophotometer (Molecular Devices). Data were plotted and Kd values derived by non-linear regression with the assumption of single-site binding (GraphPad Prism).
# (§3) Next, binding of RAP d3 and RAPv2A d3 proteins to LRP1 CR3-5 and LRP2 CR89 was assessed. In order to understand the relative contributions of each RAPv2A d3 mutation to differences in affinity, we also prepared a number of RAPv2A d3 revertants and RAP d3 forward mutants, all comprising sequence variants intermediate between RAPv2A d3 and wild-type RAP d3 (FIGS. 7A and B, Table 1). Samples were tested in triplicate and experiments were repeated at least once. Values from different experiments were combined and a single mean and standard deviation obtained for each concentration of ligand tested.
% max (percent of maximum binding) [%],Kd [nM],Binder
91,9,B1
2,,B2
4,,B3
4,,B4
100,7,B5
90,28,B6
2,,B7

# Target: B11
# Assay: as above
# Experimental: as §1, §2, §3
% max (percent of maximum binding) [%],Kd [nM],Binder
5,,B1
40,114,B2
2,,B3
2,,B4
5,,B5
2,,B6
3,,B7

# Target: T1, RAP-IDU (fusion of RAP and human …)
# Assay: solid-phase assay: CR protein coated on the plate, RAP-IDU titrated, bound iduronidase activity read as rfu
# Experimental: Initially, the binding of wild-type RAP to each CR pair or triplet was measured by solid-phase assay. Purified, refolded CR proteins were bound to Maxisorp plates during overnight incubation at 4° C. CR-loaded wells were blocked by resuspending in TBS Superblock (Pierce) supplemented with 5 mM CaCl2 (blocking buffer) and incubating for 1 hour at room temperature. Blocking buffer was removed and wells were washed once in TBS supplemented with 5 mM CaCl2 and 0.05% Tween-20 (wash buffer). Washed wells were incubated with 10 nM purified RAP-IDU (Tanimoto, et al., (2005) Br J Cancer 92, 278-283) for 2 hours at room temperature in blocking buffer. […] Wells were washed four times with wash buffer and resuspended in acidic PBS pH 5.6 supplemented with 200 μg/mL BSA (assay buffer). Iduronidase activity was measured as described previously using the fluorescent substrate 4-MU-α-L-iduronide (Tanimoto, et al., (2005) Br J Cancer 92, 278-283). No binding of RAP-IDU to empty wells was measured. […] RAP bound more weakly to other CR proteins, with dissociation constants from 30 to over 1000 nM.
row,Kd [nM],Binder
1,> 1000,B8
2,170,B9
3,328,B10
4,29,B11

# Target: B11
# Assay: solid-phase binding assay: CR protein coated on the plate, ligand titrated, anti-RAP polyclonal and HRP secondary, OD 450 nm
# Experimental: as §2
# as §3, with “tested. OD values from uncoated wells, receptor-coated wells incubated with buffer alone, and uncoated wells incubated with the highest ligand concentration all gave similar values for all conditions tested. All OD values were corrected by subtracting the OD obtained from uncoated wells.” for “tested.”
row,binding result,Binder
1,no binding (tested: 100 nM),B1
2,no binding (tested: 100 nM),B3
3,no binding (tested: 100 nM),B4
4,no binding (tested: 100 nM),B5
5,no binding (tested: 100 nM),B6
6,no binding (tested: 100 nM),B7
